In test [1] the target is T1, CD2 (human, UniProt P06729).
For test [2], the target named is T1, CD2. The source holds these as a separate data set.
Target sequence in this assay (P06729 25-351): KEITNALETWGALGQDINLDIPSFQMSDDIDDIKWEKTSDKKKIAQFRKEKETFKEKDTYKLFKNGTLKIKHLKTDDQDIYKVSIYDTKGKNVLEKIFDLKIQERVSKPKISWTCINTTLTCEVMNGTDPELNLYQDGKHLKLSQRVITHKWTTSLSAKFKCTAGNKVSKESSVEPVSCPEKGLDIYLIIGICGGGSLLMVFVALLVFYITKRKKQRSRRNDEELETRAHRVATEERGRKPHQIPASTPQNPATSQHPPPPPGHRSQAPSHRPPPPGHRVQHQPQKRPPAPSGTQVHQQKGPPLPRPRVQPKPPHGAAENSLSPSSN
In test [3] the target is T1, CD2. In words: Jurkat cell binding assay, microscopy. On the procedure: M57/CHO cells, P24/CHO cells and CHO cells (1 ×10^5) were added to separate wells of a 6-well plate (Corning) and washed twice with RPMI Complete Medium. Jurkat cells (CD2^+), obtained as a gift from Dr. Timothy Springer (Dana Farber Cancer Inst., Boston, Mass.) were washed three times with a solution of RPMI, 10% FCS, 4 mM L-glutamine, and then 5 ×10^6 cells were added to each well and incubated for 4 hours at 0° C. Cells were then washed gently three times with RPMI and examined under the microscope at 40X and 100X magnification for cell-cell binding.
The M100/CHO, M101/CHO and M102/CHO transfectants were subjected to a Jurkat cell binding assay, as described in Example 4 above.

Regarding LFA3TIP (Fc fusion), the inhibition of PHA dependent PBL proliferation, optimal PHA with CD2 [1] came out at 41%. The molecule further registered an inhibition of PHA dependent PBL proliferation, suboptimal PHA (0.1 µg/ml) in the test with CD2 [2] of 70%.
As for anti-CD2 monoclonal antibody TS2/18, the inhibition of PHA dependent PBL proliferation, optimal PHA with CD2 [1] came to 20%.

B1: M57 deletion mutant of LFA-3 (ligand)
chain: FSQQIYGVVYGNVTFHVPSNVPLKEVLWKKQKDKVAELENSEFRAFSSFKSLTIYNLTSSDEDEYEMESPNITDTMKFFLYVLESLPSPTLTCALTNGSIEVQCMIPEHYNSHRGLIMYSWDCPMEQCKRNSTSIYFKMENDLPQKIQCTLSNPLFNTTSSIILTTCIPSSGHSRHRYALIPIPLAVITTCIVLYMNGILKCDRKPDRTNSN
B1: the binding result with CD2 [3] is listed as “no binding”.

B2: M100 deletion mutant of LFA-3 (ligand)
chain: FSQQIYGVVYDEDEYEMESPNITDTMKFFLYVLESLPSPTLTCALTNGSIEVQCMIPEHYNSHRGLIMYSWDCPMEQCKRNSTSIYFKMENDLPQKIQCTLSNPLFNTTSSIILTTCIPSSGHSRHRYALIPIPLAVITTCIVLYMNGILKCDRKPDRTNSN
With B2, the binding result with CD2 [3] is reported as “no binding”.

B3: M102 deletion mutant of LFA-3 (ligand)
chain: FSQQIYGVVYGNVTFHVPSNVPLKEVLWKKQKDKVAELENSEFRAFSSFKNRVYLDTVSGSLTIYNLTSSDEDEYEMESPNITDTMKFFLYVLESLPSPTLTCALTNGSIEVQCMIPEHYNSHRGLIMYSSGHSRHRYALIPIPLAVITTCIVLYMNGILKCDRKPDRTNSN
Regarding B3, in the test with CD2 [3], the binding result is “binds”.

B4: M101 deletion mutant of LFA-3 (ligand)
chain: FSQQIYGVVYGNVTFHVPSNVPLKEVLWKKQKDKVAELENSEFRAFSSFKNRVYLDTVSGSLTIYNLTSSWDCPMEQCKRNSTSIYFKMENDLPQKIQCTLSNPLFNTTSSIILTTCIPSSGHSRHRYALIPIPLAVITTCIVLYMNGILKCDRKPDRTNSN
B4: in the test with CD2 [3], the binding result is listed as “binds”.
